Measurements: patent US20230357838

Assays:
MGYPDa23 (unidentified) = test system: T1, MGYPDa23 (unidentified)
T1 sequence: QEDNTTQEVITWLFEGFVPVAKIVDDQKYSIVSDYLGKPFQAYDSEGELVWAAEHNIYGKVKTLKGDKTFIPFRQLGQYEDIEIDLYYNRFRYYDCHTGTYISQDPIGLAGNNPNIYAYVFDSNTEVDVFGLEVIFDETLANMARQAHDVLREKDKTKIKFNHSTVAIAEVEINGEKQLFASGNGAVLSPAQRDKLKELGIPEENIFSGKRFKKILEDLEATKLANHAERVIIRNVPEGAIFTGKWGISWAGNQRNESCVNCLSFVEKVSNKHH

Sso7d_VTAGVGEAG_MGYPDa20 = test system: T2, Sso7d_VTAGVGEAG_MGYPDa20
T2 sequence: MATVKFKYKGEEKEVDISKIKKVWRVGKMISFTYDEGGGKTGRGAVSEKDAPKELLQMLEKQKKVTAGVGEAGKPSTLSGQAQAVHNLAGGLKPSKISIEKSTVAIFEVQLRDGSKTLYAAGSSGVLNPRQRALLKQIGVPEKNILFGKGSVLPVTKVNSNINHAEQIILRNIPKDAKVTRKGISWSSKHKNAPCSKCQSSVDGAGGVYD

RhDa01_extN10 = test system: T3, RhDa01_extN10; conditions: CG 0.32, CH 0.00
T3 sequence: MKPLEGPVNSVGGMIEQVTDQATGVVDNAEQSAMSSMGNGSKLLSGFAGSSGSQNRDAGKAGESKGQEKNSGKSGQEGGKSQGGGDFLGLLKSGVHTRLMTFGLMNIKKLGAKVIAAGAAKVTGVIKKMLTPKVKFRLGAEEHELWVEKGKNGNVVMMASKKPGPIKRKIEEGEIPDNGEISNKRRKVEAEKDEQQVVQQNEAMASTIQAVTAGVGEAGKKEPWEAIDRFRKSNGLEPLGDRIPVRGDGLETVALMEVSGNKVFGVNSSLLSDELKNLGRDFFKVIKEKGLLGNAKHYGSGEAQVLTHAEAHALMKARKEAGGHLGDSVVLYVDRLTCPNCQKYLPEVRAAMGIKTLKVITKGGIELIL

Sso7d_RhDa01_extN10 = test system: T4, Sso7d_RhDa01_extN10
T4 sequence: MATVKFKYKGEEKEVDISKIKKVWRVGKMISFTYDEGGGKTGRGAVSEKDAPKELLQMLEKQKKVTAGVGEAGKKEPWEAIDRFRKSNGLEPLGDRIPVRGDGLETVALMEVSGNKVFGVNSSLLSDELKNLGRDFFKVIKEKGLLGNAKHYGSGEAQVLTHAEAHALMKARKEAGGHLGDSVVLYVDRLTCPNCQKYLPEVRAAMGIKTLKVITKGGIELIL

LbDa02 = test system: T5, LbDa02; conditions: NGS assay; Table 1 prints SEQ 19 for this name
T5 sequence: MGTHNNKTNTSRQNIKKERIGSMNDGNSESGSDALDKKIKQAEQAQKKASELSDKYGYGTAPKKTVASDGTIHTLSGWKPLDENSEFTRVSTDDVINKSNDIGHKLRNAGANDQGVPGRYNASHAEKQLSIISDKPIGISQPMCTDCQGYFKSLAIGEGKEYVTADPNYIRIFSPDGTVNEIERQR

[1] = test system: d22_PeDa01 (Pseudomonas entomophila)
Sso7d_GGGVTS_AcDa01 = test system: T6, Sso7d_GGGVTS_AcDa01; conditions: CG 0.79, CH 0.03
T6 sequence: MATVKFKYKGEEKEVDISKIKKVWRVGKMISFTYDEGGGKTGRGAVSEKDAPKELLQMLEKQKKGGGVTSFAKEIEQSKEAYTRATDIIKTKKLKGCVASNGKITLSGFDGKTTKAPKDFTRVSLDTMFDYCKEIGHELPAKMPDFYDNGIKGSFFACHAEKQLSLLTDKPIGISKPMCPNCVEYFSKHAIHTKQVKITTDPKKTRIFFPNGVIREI

DddA = DddA (UniProt P0DUH5)
[2] = test system: T7, Sso7d_LSGLSDDKLKEI_AcDa01; conditions: CG 0.99, CH 0.17
T7 sequence: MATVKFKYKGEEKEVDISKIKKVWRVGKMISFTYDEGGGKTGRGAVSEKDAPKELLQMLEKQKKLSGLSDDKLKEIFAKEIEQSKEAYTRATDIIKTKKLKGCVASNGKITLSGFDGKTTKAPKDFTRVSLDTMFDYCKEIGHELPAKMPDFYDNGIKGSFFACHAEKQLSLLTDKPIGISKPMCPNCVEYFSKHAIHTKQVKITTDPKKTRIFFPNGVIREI

RhDa01 = test system: T8, RhDa01; conditions: CG 0.23, CH 0.00
T8 sequence: T3 sequence

HcDa01 = test system: T9, HcDa01
T9 sequence: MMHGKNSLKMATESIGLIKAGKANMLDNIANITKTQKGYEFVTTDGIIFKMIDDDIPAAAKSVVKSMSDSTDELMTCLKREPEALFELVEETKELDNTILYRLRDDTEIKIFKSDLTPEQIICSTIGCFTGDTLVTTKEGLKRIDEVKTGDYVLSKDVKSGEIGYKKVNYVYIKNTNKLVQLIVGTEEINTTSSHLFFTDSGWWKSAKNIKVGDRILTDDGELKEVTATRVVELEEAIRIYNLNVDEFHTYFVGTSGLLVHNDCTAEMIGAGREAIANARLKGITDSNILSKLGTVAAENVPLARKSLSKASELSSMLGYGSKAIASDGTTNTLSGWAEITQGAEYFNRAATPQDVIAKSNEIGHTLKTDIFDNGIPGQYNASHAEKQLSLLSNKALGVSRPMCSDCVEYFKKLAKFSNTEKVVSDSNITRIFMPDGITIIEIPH

unmodified dsDNA (E. coli C2566 genomic)
activity (fraction deaminated) (MGYPDa23 (unidentified)): 0.935
activity (fraction deaminated) (Sso7d_VTAGVGEAG_MGYPDa20): 0.72
activity (fraction deaminated) (RhDa01_extN10): 0.1
activity (fraction deaminated) (Sso7d_RhDa01_extN10): 0.93
activity (fraction deaminated) (LbDa02): 1
activity (fraction deaminated) [1]: 0.79
activity (fraction deaminated) (SsDa01): 0
activity (fraction deaminated) (Sso7d_GGGVTS_AcDa01): 0.26
activity (fraction deaminated) (DddA): 0.27
activity (fraction deaminated) [2]: 0.41
activity (fraction deaminated) (RhDa01): 0.07
activity (fraction deaminated) (HcDa01): 0
